Laboratory results taken from PMC9161685.

Target: SARS-CoV-2 main protease (M^pro) triple mutant (Cys85Ser|Cys156Ser|Cys300Ser), (His)6-tagged (SARS-CoV-2)
Test: SEC-MALS

SARS-CoV-2 main protease (M^pro) triple mutant (Cys85Ser|Cys156Ser|Cys300Ser), (His)6-tagged (enzyme)
stoichiometry N: 2
